According to patent US20230340152A1 (published 2023):

T1: Human CD73 on cells (MDA-MB-231, Jurkat CD73 knock-in, NCI-H322) (human, UniProt P21589 27-549)
T1 construct: GPI-anchored native protein; also called native human CD73
T1 sequence: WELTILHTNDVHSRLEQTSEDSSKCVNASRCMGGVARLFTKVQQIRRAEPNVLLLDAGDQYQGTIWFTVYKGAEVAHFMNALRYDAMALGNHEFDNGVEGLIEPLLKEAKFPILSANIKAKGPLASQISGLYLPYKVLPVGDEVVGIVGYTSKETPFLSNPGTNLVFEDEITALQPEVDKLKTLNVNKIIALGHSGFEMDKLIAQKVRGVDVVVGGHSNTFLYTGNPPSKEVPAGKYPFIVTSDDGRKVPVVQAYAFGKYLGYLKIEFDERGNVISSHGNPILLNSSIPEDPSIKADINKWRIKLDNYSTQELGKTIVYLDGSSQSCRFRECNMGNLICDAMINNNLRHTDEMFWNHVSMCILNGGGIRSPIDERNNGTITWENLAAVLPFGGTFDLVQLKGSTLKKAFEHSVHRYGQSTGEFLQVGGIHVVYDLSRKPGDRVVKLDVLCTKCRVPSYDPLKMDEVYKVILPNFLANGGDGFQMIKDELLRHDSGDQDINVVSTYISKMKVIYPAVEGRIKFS

T2: Human CD73 ECD (human, UniProt P21589 27-549)
T2 sequence: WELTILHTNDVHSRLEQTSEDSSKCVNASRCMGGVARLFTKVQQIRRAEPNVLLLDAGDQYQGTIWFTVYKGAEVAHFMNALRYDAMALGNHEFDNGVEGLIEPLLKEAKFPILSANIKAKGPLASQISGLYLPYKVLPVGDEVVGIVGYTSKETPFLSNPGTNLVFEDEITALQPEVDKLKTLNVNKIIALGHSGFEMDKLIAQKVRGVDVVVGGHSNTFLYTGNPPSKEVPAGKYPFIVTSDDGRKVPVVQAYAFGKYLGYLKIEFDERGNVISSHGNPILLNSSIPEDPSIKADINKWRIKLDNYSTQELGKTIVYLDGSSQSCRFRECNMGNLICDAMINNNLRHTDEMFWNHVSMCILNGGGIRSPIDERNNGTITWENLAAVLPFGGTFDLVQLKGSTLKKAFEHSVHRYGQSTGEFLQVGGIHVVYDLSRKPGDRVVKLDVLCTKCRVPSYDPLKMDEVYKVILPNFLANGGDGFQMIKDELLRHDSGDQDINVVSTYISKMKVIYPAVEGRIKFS

T3: Cynomolgus CD73 on MK-1 cells (cynomolgus, UniProt A0A2K5V5U7 27-549)
T3 construct: whole, on cells; also called MK-1 (cyno)
T3 sequence: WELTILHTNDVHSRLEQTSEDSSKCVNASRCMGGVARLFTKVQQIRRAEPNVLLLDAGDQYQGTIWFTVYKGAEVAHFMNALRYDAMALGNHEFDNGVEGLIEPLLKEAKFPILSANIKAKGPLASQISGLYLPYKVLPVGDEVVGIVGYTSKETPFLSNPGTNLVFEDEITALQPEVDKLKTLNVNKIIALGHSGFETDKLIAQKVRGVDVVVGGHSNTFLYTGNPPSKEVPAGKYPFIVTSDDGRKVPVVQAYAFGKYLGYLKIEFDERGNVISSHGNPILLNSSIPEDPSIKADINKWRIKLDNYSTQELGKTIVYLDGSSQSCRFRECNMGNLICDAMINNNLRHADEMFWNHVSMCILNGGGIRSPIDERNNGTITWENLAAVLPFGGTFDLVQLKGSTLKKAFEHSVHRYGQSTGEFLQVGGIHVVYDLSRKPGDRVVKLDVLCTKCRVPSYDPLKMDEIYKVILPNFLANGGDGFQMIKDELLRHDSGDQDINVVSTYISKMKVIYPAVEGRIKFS

T4: Murine CD73 on cells (4T1, Jurkat mCD73 knock-in) (murine, UniProt Q61503 29-551)
T4 construct: whole, on cells; also called 4T1 (murine)
T4 sequence (looked up): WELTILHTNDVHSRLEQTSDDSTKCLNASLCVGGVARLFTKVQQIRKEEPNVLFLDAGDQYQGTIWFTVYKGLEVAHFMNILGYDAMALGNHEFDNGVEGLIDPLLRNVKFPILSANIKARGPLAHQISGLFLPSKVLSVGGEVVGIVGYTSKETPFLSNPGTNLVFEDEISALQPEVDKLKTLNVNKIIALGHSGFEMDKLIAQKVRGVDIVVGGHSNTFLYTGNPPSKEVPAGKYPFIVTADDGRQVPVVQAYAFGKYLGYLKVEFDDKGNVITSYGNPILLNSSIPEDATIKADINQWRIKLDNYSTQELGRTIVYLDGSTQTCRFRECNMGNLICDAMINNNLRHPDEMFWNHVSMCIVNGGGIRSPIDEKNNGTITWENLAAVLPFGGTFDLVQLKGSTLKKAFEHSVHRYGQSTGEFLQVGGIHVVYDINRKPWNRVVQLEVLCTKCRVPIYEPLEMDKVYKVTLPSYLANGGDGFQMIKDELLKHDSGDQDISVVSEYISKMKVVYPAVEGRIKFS


What was measured:
[1] = biological target: T1, Human CD73 on cells (MDA-MB-231, Jurkat …); assay: FACS on MDA-MB-231 cells, vs CD730002SGMY
Human CD73 ECD [2] = biological target: T2, Human CD73 ECD; assay: cell-based or functional assay
[3] = biological target: T1, Human CD73 on cells (MDA-MB-231, Jurkat …); assay: cell-based or functional assay
[4] = biological target: T3, Cynomolgus CD73 on MK-1 cells; assay: flow cytometry on cells
[5] = biological target: T4, Murine CD73 on cells (4T1, Jurkat mCD73 …); assay: flow cytometry on cells
[6] = biological target: T1, Human CD73 on cells (MDA-MB-231, Jurkat …); assay: flow cytometry on cells
Human CD73 ECD [7] = biological target: T2, Human CD73 ECD; assay: SPR (Proteon)

Row | Binder | FACS signal, fold improvement over parental antibody [1] [fold] | Enzyme Inhibition, rCD73, 1/EC50 (nM) (Human CD73 ECD [2]) [nM⁻¹] | Enzyme Inhibition, MDA-MB-231, 1/EC50 (nM) [3] [nM⁻¹] | Internalization, MDA-MB-231, 1/EC50 (nM) [3] [nM⁻¹] | Kd [4] [nM] | Kd [5] [nM] | Kd [6] [nM] | Kd (Human CD73 ECD [7]) [nM]
1 | CD730002SGMY CDRH1 M34R (Fab, V domains shown, format in the FACS read-out not clearly stated) VH: EVQLLESGGGLVQPGGSLRLSCAASGFTFSSYARSWVRQAPGKGLEWVSAISGSGGSTYYADSVKGRFTISRDNSKNTLYLQMNSLRAEDTAVYYCARDKGYYWYMDVWGQGTMVTVSS VL: QSVLTQPPSVSVSPGQTASITCSGDKVGDKYASWYQQKPGQSPVLVIYEDTKRPSGIPERFSGSNSGNTATLTISGTQAMDEADYYCQAWDTSFWVFGGGTKLTVL | 1.1 |  |  |  |  |  |  | 
2 | CD730002SGMY CDRH2 T57P (Fab, V domains shown, format in the FACS read-out not clearly stated) VH: EVQLLESGGGLVQPGGSLRLSCAASGFTFSSYAMSWVRQAPGKGLEWVSAISGSGGSPYYADSVKGRFTISRDNSKNTLYLQMNSLRAEDTAVYYCARDKGYYWYMDVWGQGTMVTVSS VL: QSVLTQPPSVSVSPGQTASITCSGDKVGDKYASWYQQKPGQSPVLVIYEDTKRPSGIPERFSGSNSGNTATLTISGTQAMDEADYYCQAWDTSFWVFGGGTKLTVL | 1.5 |  |  |  |  |  |  | 
3 | CD730068 (antibody, V domains shown) VH: EVQLLESGGGLVQPGGSLRLSCAASGFTFSNYIMGWVRQAPGKGLEWVSSISSSGGATIYADSVKGRFTISRDNSKNTLYLQMNSLRAEDMAVYYCAKDHLGGHGMDVWGQGTTVTVSS VL: DIQMTQSPSSLSASVGDRVTITCRASQDISNYLAWFQQKPGKAPKSLIFAASSLESGVPSKFSGSGSGTDFTLTISSLQPEDSATYYCQQYNSYPLTFGGGTKVEIK |  | 0 | 0 | 0 |  |  |  | 
4 | C2 (IgG1-TM) (antibody, V domains shown, IgG1-TM format; also called clone 10 C2) VH: EVQLLESGGGLVQPGGSLRLSCAASGFTFSSYAYSWVRQAPGKGLEWVSLIWGSWGSTYYADSVKGRFTISRDNSKNTLYLQMNSLRAEDTAVYYCARLGYSTIDMWGRGTLVTVSS VL: QSVLTQPPSASGTPGQRVTISCSGSLSNIGRNPVNWYQQLPGTAPKLLIYLDNLRLGGVPDRFSGSKSGTSASLAISGLQSEDEADYYCATWDDSLKGWLFGGGTKLTVL |  |  |  |  | 0.105 | 0.067 | 0.158 | 0.023
5 | 73combo5 (G10+GRVE+HPT) (antibody, V domains shown, IgG1-TM format; also called clone 10 combo5) VH: EVQLLESGGGLVQPGGSLRLSCAASGFTFSSYAYSWVRQAPGKGLEWVSAISGSWGRTYYADSVKGRFTISRDNSKNTLYLQMNSLRAEDTAVYYCARLGYGRVDEWGRGTLVTVSS VL: QSVLTQPPSASGTPGQRVTISCSGSLSNIGRNDVNWYQQLPGTAPKLLIYLNNQRLGGVPDRFSGSKSGTSASLAISGLQSEDEADYYCATWDDSHPGWTFGGGTKLTVL |  |  |  |  | 0.078 | 0.205 | 0.169 | 0.007
6 | G10 (IgG1-TM) (antibody, V domains shown, IgG1-TM format; also called clone 10 G10) VH: EVQLLESGGGLVQPGGSLRLSCAASGFTFSSYAYSWVRQAPGKGLEWVSAISGSWGRTYYADSVKGRFTISRDNSKNTLYLQMNSLRAEDTAVYYCARLGYSTIDLWGRGTLVTVSS VL: QSVLTQPPSASGTPGQRVTISCSGSLSNIGRNDVNWYQQLPGTAPKLLIYLNNQRLGGVPDRFSGSKSGTSASLAISGLQSEDEADYYCATWDDSLKGWLFGGGTKLTVL |  |  |  |  | 0.258 | 0.259 | 0.354 | 0.009
7 | 73combo2 (C2+GRVE+HPT) (antibody, V domains shown, IgG1-TM format; also called clone 10 combo2) VH: EVQLLESGGGLVQPGGSLRLSCAASGFTFSSYAYSWVRQAPGKGLEWVSLIWGSWGSTYYADSVKGRFTISRDNSKNTLYLQMNSLRAEDTAVYYCARLGYGRVDEWGRGTLVTVSS VL: QSVLTQPPSASGTPGQRVTISCSGSLSNIGRNPVNWYQQLPGTAPKLLIYLDNLRLGGVPDRFSGSKSGTSASLAISGLQSEDEADYYCATWDDSHPGWTFGGGTKLTVL |  |  |  |  | 0.074 | 0.064 | 0.166 | 0.005
8 | CD730069 (antibody, V domains shown) VH: EVQLLESGGGLVQPGGSLRLSCAASGFTFSEYQMGWVRQAPGKGLEWVSYIRSSGGQTIYADSVKGRFTISRDNSKNTLYLQMNSLRAEDTAVYYCARRTYSSGWHIDYWGQGTLVTVSS VL: DIQMTQSPDSLSASVGDRVTITCRASQSISRYLNWYQQKPGKAPKLLIYGASSLQSGVPSRFSGSGSGTDFSLTISSLQLEDFATYYCQQSYRTPLTFGGGTKVEIQ |  | 0.038 | 0.0013 | 0.038 |  |  |  | 
